± gives the uncertainty stated by the source.
B1: Intersectin-1, residues 909 to 971; numbered along this chain, Q15811 (parent)
chain: QGEKVEGLQAQALYPWRAKKDNHLNFNKNDVITVLEQQDMWWFGEVQGQKGWFPKSYVKLISG

Variants of: B1
Test: abundance fitness (aPCA) (normalised: wild type 0, dead -1); higher = more abundant; growth selection in yeast, the domain comes from the species named
Details: Homo sapiens

Variant	abundance fitness
QGEKVEGLQAQALYPWRAKKDNHLNFNKNDVITVLEQQDMWWFGEVQLQKGWFPKSYVKLISG [G48L]	-0.259 ± 0.1
QGEKVEGLQAQALYPWRAKKDNHLNFNKNDVITVLEQQDMWWFGEVQGQNGWFPKSYVKLISG [K50N]	0.014 ± 0.16
QGEKVEGLQAQALYPWRAKKDNHLNFNKNDVITVLEQQDMWWFGEVQGQDGWFPKSYVKLISG [K50D]	-0.256 ± 0.2
QGEKVEGLQAQALYPWRAKKDNHLNFNKNDVITVLEQQDMWWFGEVQGQPGWFPKSYVKLISG [K50P]	-0.242 ± 0.28
QGEKVEGLQAQALYPWRAKKDNHLNFNKNDVITVLEQQDMWWFGEVQGQSGWFPKSYVKLISG [K50S]	-0.139 ± 0.11
QGEKVEGLQAQALYPWRAKKDNHLNFNKNDVITVLEQQDMWWFGEVQGQQGWFPKSYVKLISG [K50Q]	-0.308 ± 0.17
QGEKVEGLQAQALYPWRAKKDNHLNFNKNDVITVLEQQDMWWFGEVQGQAGWFPKSYVKLISG [K50A]	-0.183 ± 0.1
QGEKVEGLQAQALYPWRAKKDNHLNFNKNDVITVLEQQDMWWFGEVQGQEGWFPKSYVKLISG [K50E]	-0.052 ± 0.12
QGEKVEGLQAQALYPWRAKKDNHLNFNKNDVITVLEQQDMWWFGEVQGQHGWFPKSYVKLISG [K50H]	-0.271 ± 0.23
QGEKVEGLQAQALYPWRAKKDNHLNFNKNDVITVLEQQDMWWFGEVQGQRGWFPKSYVKLISG [K50R]	0.056 ± 0.12
QGEKVEGLQAQALYPWRAKKDNHLNFNKNDVITVLEQQDMWWFGEVQGQWGWFPKSYVKLISG [K50W]	-0.255 ± 0.23
QGEKVEGLQAQALYPWRAKKDNHLNFNKNDVITVLEQQDMWWFGEVQGQTGWFPKSYVKLISG [K50T]	-0.108 ± 0.15
QGEKVEGLQAQALYPWRAKKDNHLNFNKNDVITVLEQQDMWWFGEVQGQMGWFPKSYVKLISG [K50M]	-0.177 ± 0.26
QGEKVEGLQAQALYPWRAKKDNHLNFNKNDVITVLEQQDMWWFGEVQGQLGWFPKSYVKLISG [K50L]	-0.383 ± 0.14
QGEKVEGLQAQALYPWRAKKDNHLNFNKNDVITVLEQQDMWWFGEVQGQFGWFPKSYVKLISG [K50F]	-0.208 ± 0.23
QGEKVEGLQAQALYPWRAKKDNHLNFNKNDVITVLEQQDMWWFGEVQGQIGWFPKSYVKLISG [K50I]	-0.224 ± 0.21
QGEKVEGLQAQALYPWRAKKDNHLNFNKNDVITVLEQQDMWWFGEVQGQVGWFPKSYVKLISG [K50V]	-0.26 ± 0.12
QGEKVEGLQAQALYPWRAKKDNHLNFNKNDVITVLEQQDMWWFGEVQGQCGWFPKSYVKLISG [K50C]	-0.113 ± 0.17
QGEKVEGLQAQALYPWRAKKDNHLNFNKNDVITVLEQQDMWWFGEVQGQKGTFPKSYVKLISG [W52T]	-0.89 ± 0.28
QGEKVEGLQAQALYPWRAKKDNHLNFNKNDVITVLEQQDMWWFGEVQGQKGFFPKSYVKLISG [W52F]	-0.232 ± 0.4
QGEKVEGLQAQALYPWRAKKDNHLNFNKNDVITVLEQQDMWWFGEVQGQKGMFPKSYVKLISG [W52M]	-0.804 ± 0.46
QGEKVEGLQAQALYPWRAKKDNHLNFNKNDVITVLEQQDMWWFGEVQGQKGQFPKSYVKLISG [W52Q]	-0.776 ± 0.46

Variant	abundance fitness
QGEKVEGLQAQALYPWRAKKDNHLNFNKNDVITVLEQQDMWWFGEVQGQKGKFPKSYVKLISG [W52K]	-0.375 ± 0.45
QGEKVEGLQAQALYPWRAKKDNHLNFNKNDVITVLEQQDMWWFGEVQGQKGPFPKSYVKLISG [W52P]	-0.721 ± 0.27
QGEKVEGLQAQALYPWRAKKDNHLNFNKNDVITVLEQQDMWWFGEVQGQKGVFPKSYVKLISG [W52V]	-0.944 ± 0.25
QGEKVEGLQAQALYPWRAKKDNHLNFNKNDVITVLEQQDMWWFGEVQGQKGRFPKSYVKLISG [W52R]	-1 ± 0.21
QGEKVEGLQAQALYPWRAKKDNHLNFNKNDVITVLEQQDMWWFGEVQGQKGIFPKSYVKLISG [W52I]	-0.458 ± 0.25
QGEKVEGLQAQALYPWRAKKDNHLNFNKNDVITVLEQQDMWWFGEVQGQKGAFPKSYVKLISG [W52A]	-0.708 ± 0.41
QGEKVEGLQAQALYPWRAKKDNHLNFNKNDVITVLEQQDMWWFGEVQGQKGSFPKSYVKLISG [W52S]	-1.15 ± 0.41
QGEKVEGLQAQALYPWRAKKDNHLNFNKNDVITVLEQQDMWWFGEVQGQKGGFPKSYVKLISG [W52G]	-1.18 ± 0.39
QGEKVEGLQAQALYPWRAKKDNHLNFNKNDVITVLEQQDMWWFGEVQGQKGWHPKSYVKLISG [F53H]	-0.709 ± 0.49
QGEKVEGLQAQALYPWRAKKDNHLNFNKNDVITVLEQQDMWWFGEVQGQKGWKPKSYVKLISG [F53K]	-0.962 ± 0.41
QGEKVEGLQAQALYPWRAKKDNHLNFNKNDVITVLEQQDMWWFGEVQGQKGWEPKSYVKLISG [F53E]	-0.858 ± 0.46
QGEKVEGLQAQALYPWRAKKDNHLNFNKNDVITVLEQQDMWWFGEVQGQKGWGPKSYVKLISG [F53G]	-0.569 ± 0.29
QGEKVEGLQAQALYPWRAKKDNHLNFNKNDVITVLEQQDMWWFGEVQGQKGWLPKSYVKLISG [F53L]	-0.701 ± 0.13
QGEKVEGLQAQALYPWRAKKDNHLNFNKNDVITVLEQQDMWWFGEVQGQKMWFPKSYVKLISG [G51M]	-0.938 ± 0.45
QGEKVEGLQAQALYPWRAKKDNHLNFNKNDVITVLEQQDMWWFGEVQGQKEWFPKSYVKLISG [G51E]	-0.86 ± 0.29
QGEKVEGLQAQALYPWRAKKDNHLNFNKNDVITVLEQQDMWWFGEVQGQKDWFPKSYVKLISG [G51D]	-0.793 ± 0.4
QGEKVEGLQAQALYPWRAKKDNHLNFNKNDVITVLEQQDMWWFGEVQGQKCWFPKSYVKLISG [G51C]	-0.709 ± 0.32
QGEKVEGLQAQALYPWRAKKDNHLNFNKNDVITVLEQQDMWWFGEVQGQKAWFPKSYVKLISG [G51A]	-0.408 ± 0.2
QGEKVEGLQAQALYPWRAKKDNHLNFNKNDVITVLEQQDMWWFGEVQGQKRWFPKSYVKLISG [G51R]	-0.89 ± 0.26
QGEKVEGLQAQALYPWRAKKDNHLNFNKNDVITVLEQQDMWWFGEVQGQKVWFPKSYVKLISG [G51V]	-0.97 ± 0.27
QGEKVEGLQAQALYPWRAKKDNHLNFNKNDVITVLEQQDMWWFGEVQGQKSWFPKSYVKLISG [G51S]	-0.988 ± 0.3

From the Human Domainome abundance scans (Beltran et al. 2025)
